Measurements: the supplement of paper PMC12042874
± gives the uncertainty stated by the source.

Assay: amyloid nucleation score (Sup35N fusion, yeast selection) (log enrichment); library NNK1; higher = more nucleation; inactive = no reads after selection
Procedure, shortened: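 For the nucleation score, DiMSum gave the log enrichment of output over input reads, centred on the mode score of non-aggregating sequences. Psi-negative yeast expressing Sup35N fused to peptides of 20 random codons were induced with 100 μM copper sulfate for 24 hours and grown 7 days at 30°C on medium lacking adenine and uracil. Input and output plasmid inserts were Illumina-sequenced, and sequences with under 100 input reads were excluded.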

Substance | amyloid nucleation score
TNFANHRLGDPIMYSFHKGV | -0.74 ± 0.37
SAVVAVPVPYRDHQCPLPRV | 1.13 ± 0.52
SLAWSRMRCKFWSVSPSAFP | -0.352 ± 0.49
AGVAGL | -0.661 ± 0.4
FLMGTFDCCTVSVLFFAGK | 5.44 ± 0.055
KKFFRVLLSLSSMLVLCCFQ | -0.317 ± 1.4
GFYLRYYLGISVRHYNHVIW | 1.19 ± 0.72
EVRLPQTYLVEWGTNQFRF | -0.504 ± 0.57
VCILFSAPDNMWFFSD | 1.49 ± 0.45
SFCVFLMDMSRIGPETLSEW | 4.95 ± 0.076
HLMMTLFFVPVLMCITFTDG | -0.032 ± 0.3
TFTFNACELCVPGLMCKEWN | 3.94 ± 0.096
DLLDLIQISDSLKILNALPE | 0.845 ± 0.18
AVQYNKVKERTLSQPWTHHV | -1.86 ± 1.7
FAGLSHWKPLDGTMGVGDRV | -0.526 ± 0.41
ASRVQGMYYHVHQPLKQLWV | inactive
GTSRPVDWGLRRLS | 1.37 ± 0.62
SQINWILYTSNFTLW | -1.02 ± 1.7
IAYVQFAPRKY | 0.776 ± 0.36
DIATCRIWTVCTCQMCFISV | 6.17 ± 0.089
LGSMSTWVDRLRVANQVVVC | 0.785 ± 0.77
FSDCCLSAKRA | -0.46 ± 0.73

Substance | amyloid nucleation score
QDRNVSWLYIGSVTGRRVAG | 0.488 ± 0.66
VFSCLLHYIFKAMLGYSVCL | -0.155 ± 0.3
NFHFVMGISVIRRLMSESQS | -0.366 ± 0.66
CLLLVMTVTGGGSVTMLSQM | -0.078 ± 0.32
VKEWGTNSVLGSYTVAQEMS | 0.096 ± 0.94
VAYRVFCD | 0.51 ± 0.36
FLTNNLYCTPYF | 3.19 ± 0.079
DYFRYRIFKKSYHKPAVICI | -0.415 ± 0.52
HMRDLEDPQWSDY | -0.711 ± 0.32
MAWDLT | 1.52 ± 0.22
LLMGFGGAFSVNTADPRLLV | -0.752 ± 0.65
KGVCMTRHD | -0.136 ± 1.6
MQLHNGWMLITYKKGTSIIW | -2.3 ± 1.8
SCLWGMRLKL | -0.366 ± 0.8
KYWGS | inactive
PRTNSNMIKCYIFDNAWNQL | 6.234 ± 0.055
RVRAVCVLFRTNAAFPAGTH | -1.03 ± 0.74
PTTYNYSCVGIVSFDFSESI | 5.293 ± 0.052
LVNVCFRWNLKCYYQSSEYA | 0.518 ± 0.32
TIILSRLVEGVMQWAFMRAF | inactive
DGNLKSR | 0.644 ± 0.78
GCSVAASSESNNRSQQVGLT | 1.02 ± 0.84

Substance | amyloid nucleation score
GHTLRDVWASVEVRSNVDLD | 0.54 ± 0.82
SRSSGFAVTYSNTRTKKSKA | -1.77 ± 1.3
CTSCQYKCNCWGCVRYQTWF | 2.41 ± 0.27
YPLVFRIMDVVSPPPHWVLF | -0.219 ± 1.2
ASMLFRSHQCCLIHSGADIN | 0.979 ± 0.29
RTSTQFPSHQYIQVVLCIS | inactive
LFADYILCTCAGCGTGAWEM | -0.092 ± 1.1
GYMFPVFSMIGFLNTNVWSK | 3.27 ± 0.15
LCLLCNRYRWTN | 7.041 ± 0.048
RVIGPTHYLQLCNIMFCDYI | 7.206 ± 0.051
GNDIEAIKHSGLLLSSWTMG | -0.253 ± 1.2
IMMHSGPRKVPGSFGQTVHD | 0.019 ± 0.68
CRSSHE | 0.109 ± 1.4
KHRLGQSMVSVRHYRFWGRI | -0.437 ± 0.57
AFLMMSTVAPTLWMIMPSYS | 0.446 ± 0.48
YWSLYSPFYAIHSVILTICQ | 0.496 ± 0.18
FLVNFGWRFAD | 1.14 ± 0.32
MGSEVSELWGLVEVKVGDKP | 0.617 ± 0.52
LMVNYRLRLYFFVLDSCDGE | -0.348 ± 0.28
RARTKAWWMDWSGYRRGGHL | 0.118 ± 0.58
SSYSRCTFKAFKLGSVRVQV | 0.924 ± 0.7
SCLMLGTGGETLRSRPPRKV | -1.45 ± 1.1

Substance | amyloid nucleation score
SYRGWADADNLVLYPQNASV | 0.021 ± 0.97
NTAQVLYYL | -0.674 ± 0.22
LISGKYLYSPTALLDHIL | 0.484 ± 0.68
INTYWAGCIFCRMFGESRLK | 7.253 ± 0.069
LGNNPTKHC | -0.171 ± 0.51
AAPRWSYEAASANAMLFVIL | 2.89 ± 0.25
FGFVSPGPY | -0.611 ± 0.51
VRSWVLVLQSMCGLLSGGYG | -0.802 ± 0.96
VGEALYHESSGTVNLEILCS | inactive
WCFVTHLLLCFLLDDKNFTW | inactive
YVRVRSIDVLQQKRSLFVRD | 0.595 ± 0.97
TFSDSLKNLQVMVHYSWVVG | 0.224 ± 1.4
MSMKQEEVDGSSW | -0.553 ± 1.5
KNCAAFLHRHGFEVAQRGTC | -0.337 ± 0.78
VVGFYEWGQSREISSLRGGC | 0.382 ± 0.58
SDLLCLLVKDIIYFFVYLHS | 1.96 ± 0.53
GIWVGHESVVIIVDMLYMLL | 5.493 ± 0.046
LSGFLSYYLCKPKA | -0.887 ± 0.38
AEASKYVMYIKARCMQLMRS | -0.931 ± 1.1
